This is an account of results in PMC6245935, “Fructose-1,6-bisphosphate aldolase encoded by a core gene of Mycoplasma hyopneumoniae contributes to host cell adhesion” (Veterinary Research, 2018).

In the assay the target is fibronectin (UniProt P02751 32-2477). Nature of the assay: SPR; BIAcore X100 Plus; fibronectin amine-coupled to CM5 chip (2868 RU); rFBA analyte 0-100 ug/mL in HBS-EP (10 mM HEPES, 150 mM NaCl, 3 mM EDTA, 0.05% P20), 30 uL/min, 180 s association, 1000 s dissociation, 20 °C. The conditions noted are these: both partners purified. In general terms: In SPR one partner is held on a chip, and binding of the other changes the refractive index at the surface.
fibronectin, sequence (P02751 32-2477): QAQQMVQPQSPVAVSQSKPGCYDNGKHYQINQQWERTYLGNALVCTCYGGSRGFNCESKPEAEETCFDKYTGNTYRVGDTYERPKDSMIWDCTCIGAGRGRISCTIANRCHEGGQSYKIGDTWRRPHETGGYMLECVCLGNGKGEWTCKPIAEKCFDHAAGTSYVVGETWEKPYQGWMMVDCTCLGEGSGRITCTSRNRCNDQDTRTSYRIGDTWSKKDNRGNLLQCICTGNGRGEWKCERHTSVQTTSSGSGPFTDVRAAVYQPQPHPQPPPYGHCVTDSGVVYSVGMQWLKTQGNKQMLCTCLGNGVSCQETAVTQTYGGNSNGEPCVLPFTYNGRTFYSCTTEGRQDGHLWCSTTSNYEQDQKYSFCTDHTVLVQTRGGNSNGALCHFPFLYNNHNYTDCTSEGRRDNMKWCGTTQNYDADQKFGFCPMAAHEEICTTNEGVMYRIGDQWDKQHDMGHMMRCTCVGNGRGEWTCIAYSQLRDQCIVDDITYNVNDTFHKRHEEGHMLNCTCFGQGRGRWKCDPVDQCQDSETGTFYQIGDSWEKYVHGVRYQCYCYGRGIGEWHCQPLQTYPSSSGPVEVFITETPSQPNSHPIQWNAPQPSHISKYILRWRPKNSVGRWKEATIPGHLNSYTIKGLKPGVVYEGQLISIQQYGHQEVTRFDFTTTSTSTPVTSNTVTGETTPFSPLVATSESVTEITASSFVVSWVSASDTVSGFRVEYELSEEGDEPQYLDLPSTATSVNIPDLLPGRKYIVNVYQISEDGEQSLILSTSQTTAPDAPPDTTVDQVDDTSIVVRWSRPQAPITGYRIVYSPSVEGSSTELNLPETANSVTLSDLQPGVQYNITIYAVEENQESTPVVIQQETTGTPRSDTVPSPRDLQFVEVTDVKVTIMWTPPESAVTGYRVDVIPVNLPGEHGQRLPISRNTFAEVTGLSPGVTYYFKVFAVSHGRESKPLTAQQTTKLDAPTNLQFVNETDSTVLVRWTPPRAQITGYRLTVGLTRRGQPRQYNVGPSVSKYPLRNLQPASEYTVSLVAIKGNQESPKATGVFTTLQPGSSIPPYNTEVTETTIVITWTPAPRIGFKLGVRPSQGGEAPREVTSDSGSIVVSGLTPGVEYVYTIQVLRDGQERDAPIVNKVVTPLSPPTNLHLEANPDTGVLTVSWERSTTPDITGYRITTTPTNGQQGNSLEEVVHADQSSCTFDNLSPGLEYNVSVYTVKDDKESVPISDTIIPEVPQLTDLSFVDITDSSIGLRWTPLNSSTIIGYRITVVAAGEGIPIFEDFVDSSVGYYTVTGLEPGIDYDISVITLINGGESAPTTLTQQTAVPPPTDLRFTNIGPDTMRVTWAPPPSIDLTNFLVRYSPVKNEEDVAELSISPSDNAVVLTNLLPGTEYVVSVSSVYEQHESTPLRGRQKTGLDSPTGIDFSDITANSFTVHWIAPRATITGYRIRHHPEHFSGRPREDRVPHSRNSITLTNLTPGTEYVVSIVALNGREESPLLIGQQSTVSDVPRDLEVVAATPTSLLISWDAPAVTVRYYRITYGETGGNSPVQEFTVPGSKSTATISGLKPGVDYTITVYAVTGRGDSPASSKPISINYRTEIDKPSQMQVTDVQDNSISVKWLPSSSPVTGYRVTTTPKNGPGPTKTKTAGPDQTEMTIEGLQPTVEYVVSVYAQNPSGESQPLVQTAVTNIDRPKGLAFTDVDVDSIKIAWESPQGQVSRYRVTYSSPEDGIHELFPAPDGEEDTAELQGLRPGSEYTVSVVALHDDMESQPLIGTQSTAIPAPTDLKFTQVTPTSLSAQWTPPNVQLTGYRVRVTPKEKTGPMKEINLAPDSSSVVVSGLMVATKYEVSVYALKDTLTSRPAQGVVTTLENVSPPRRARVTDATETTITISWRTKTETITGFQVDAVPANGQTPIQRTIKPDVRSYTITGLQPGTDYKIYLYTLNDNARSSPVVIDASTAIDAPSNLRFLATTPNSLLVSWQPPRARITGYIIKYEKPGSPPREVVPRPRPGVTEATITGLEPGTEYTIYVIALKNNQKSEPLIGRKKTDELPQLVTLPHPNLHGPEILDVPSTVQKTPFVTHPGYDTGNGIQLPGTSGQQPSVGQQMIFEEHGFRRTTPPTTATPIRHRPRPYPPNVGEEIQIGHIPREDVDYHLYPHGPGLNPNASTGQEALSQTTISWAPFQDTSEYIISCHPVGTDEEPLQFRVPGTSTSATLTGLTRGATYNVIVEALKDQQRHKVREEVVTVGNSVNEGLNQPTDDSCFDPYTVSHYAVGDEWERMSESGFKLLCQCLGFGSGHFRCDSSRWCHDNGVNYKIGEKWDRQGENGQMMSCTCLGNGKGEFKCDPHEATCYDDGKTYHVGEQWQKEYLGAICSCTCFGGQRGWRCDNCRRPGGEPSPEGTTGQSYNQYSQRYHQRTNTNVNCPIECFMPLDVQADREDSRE

B1: recombinant fructose-1,6-bisphosphate aldolase (rFBA) of Mycoplasma hyopneumoniae strain 168 (enzyme)
chain: MKTIISIAIDFLKNRESAHFSDIFLEVQTSLMSKWENQLPNLSTDKILTLKRGELYKLLSIDGNFVPLGDNYWTLRSDLNALVFFFFFFLKVFDCKKKKKKYRKGKMQLVNTKEMLEKALKNNYAIPHININNLEWTKAALLAAQAKKSPLIIGTSERVLTYMGGLKTIYNLVTNLIDYFKITVPVALHLDHGTYLTCKEALKNGYTSVMYDGSKEKFELNLERTEEIVRLANKVNATVEAEVGQIGGEEDGVIGNGEIANPENAKKITETGITCLAAGIGNIHGIYPPDWKSLNFEILEKISKVTKIPLVLHGGSGIPKDQIQKAIKLGIAKINVNTELQQANAAAISEFVLSGKVKQGKNFDPRKLLAPGTDAIQLLIEEKITEFGSANQA
notes: Fructose-1,6-bisphosphate aldolase (FBA) of Mycoplasma hyopneumoniae strain 168, full-length fba gene, locus MHP168_014, GenBank ADQ90241.1; The gene was cloned by site-directed mutation and overlap extension PCR 'due to the existence of rare codons'; also called fructose-bisphosphate aldolase; source: Escherichia coli BL21 (DE3), purified by Ni-chelating chromatography
For orientation: Kd means the equilibrium constant for the complex coming apart. By kon is commonly meant the second-order rate constant of association. Turning to B1, the dissociation constant (Kd) came out at 468 ± 23 nM and the kon was 3470 ± 580 M⁻¹ s⁻¹.
